Tested on: differentiated cellular BBB model
Test: Study B: permeability of the nanobodies and conjugates through differentiated cellular BBB model (ELISA)
Format: in vitro ADME, rats
Conditions: samples at 60 and 120 min, FIG. 7
Procedure: Cerebral microvessel endothelial cells prepared from 5-week-old male rats were seeded on microporous filters in order to: • evaluate the toxicity of the nanobodies and conjugates during their transfer by kinetic measurement of the sucrose transfer. • evaluate the permeability of the nanobodies and conjugates in the blood/brain direction. Experimental Conditions: • The endothelial cells were seeded on 28 Transwell Polycarbonate filters (porosity 0.4 μm and diameter 12 mm), and cultured in differentiation medium. • The measurement of toxicity (study A) or permeability (study B) of the nanobodies and conjugates was carried out in HBSS Ca/Mg medium supplemented with 0.1% BSA.
For study B, the medium collected at 60 min basolaterally was replaced by the same volume of fresh medium.
The samples collected at 60 and 120 min were analyzed by ELISA test to evaluate the quantity of nanobodies and conjugates which passed during study B. To be able to analyze the different samples by ELISA, it was necessary to first purify them to remove BSA limiting adhesion to 96-well plates of ELISA test. Thanks to the polyhistidine label present on the 3 nanobodies and conjugates, purifications on a 96-well plate coated with Nickel-NTA were carried out. […]
An absorbance reading was carried out at 450 nm after stopping the colorimetric reaction using a 1 N HCl solution. […]

B1: 2C5: anti-Tau nanobody (VHH, SEQ ID NO: 3) detecting pathological oligomeric forms of Tau protein (protein)
VHH: QVQLVQSGGGLVQAGGSLRLSCAASGRTFSSDTLAWFRQAPGKEREFVASISPSGGVTYYEDSVKGRFTISRDNSKNTVLLQMNSLTPEDTAVYYCNRDPKYGNTRYWGQGTQVTVSSAAA
- passage through the BBB model (blood/brain direction): not passing this model

— patent US12466854B2, “Peptide useful for the transport of molecules through cell barriers” (UNIVERSITÉ GRENOBLE ALPES, priority 2022, dated 2025)
